Laboratory results as given in publication PMC3995681, “Structural, Kinetic and Proteomic Characterization of Acetyl Phosphate-Dependent Bacterial Protein Acetylation” (PLoS ONE, 2014).

Target: the molecule itself
Assay: crystal structure; GapA crystals from PACT G2 (0.2 M sodium bromide, 0.1 M Bis Tris propane 7.5, 20% PEG 3350), grown at 22°C, soaked with about 10 mM acP for less than 30 sec; data at 100 K

B1: glyceraldehyde-3-phosphate dehydrogenase (GapA) from E. coli (enzyme, E. coli K-12, UniProt P0A9B2 1-331, looked up)
chain: MTIKVGINGFGRIGRIVFRAAQKRSDIEIVAINDLLDADYMAYMLKYDSTHGRFDGTVEVKDGHLIVNGKKIRVTAERDPANLKWDEVGVDVVAEATGLFLTDETARKHITAGAKKVVMTGPSKDNTPMFVKGANFDKYAGQDIVSNASCTTNCLAPLAKVINDNFGIIEGLMTTVHATTATQKTVDGPSHKDWRGGRGASQNIIPSSTGAAKAVGKVLPELNGKLTGMAFRVPTPNVSVVDLTVRLEKAATYEQIKAAVKAAAEGEMKGVLGYTEDDVVSTDFNGEVCTSVFDAKAGIALNDNFVKLVSWYDNETGYSNKVLDLIAHISK
modifications: acetyl-lysine at K46, K249, K257 and K116 after the acP soak of the crystals (not in all molecules of the asymmetric unit)
notes: glyceraldehyde-3-phosphate dehydrogenase GapA, E. coli K-12, ORF of the gene from the ASKA clone; The crystals were grown from unmodified protein and acetylated by a soak with acP of under 30 sec; source: E. coli BL-21 (DE3) Magic cells, ASKA clone in pCA24N, purified
stoichiometry N: 4
